Measured values: patent publication US6410711
Each block holds one binder with its values, some of them ahead of it.

Columns and labels:
[1] = biological target: T1, CD40/Fc fusion protein (human, UniProt P25942 21-193); test: biosensor (BIAcore), CD40/Fc captured by goat anti-human IgG1 Fc; experiment 1
T1 construct: extracellular domain; also called C40/Fc; s CD40/Fc; not shown: remainder of the human IgG1 Fc region, joined at a Bgl II site near the beginning of the hinge
Description: (§1) This example illustrates the binding affinities of several different CD40-L constructs. Affinity experiments were conducted by biospecific interaction analysis (BIA) using a biosensor, an instrument that combines a biological recognition mechanism with a sensing device or transducer. An exemplary biosensor is BIAcore™, from Pharmacia Biosensor AB (Uppsala, Sweden; see Fägerstam L. G., *Techniques in Protein Chemistry II*, ed. J. J. Villafranca, Acad. Press, NY, 1991). BIAcore™ uses the optical phenomenon surface plasmon resonance (Kretschmann and Raether, *Z. Naturforschung, Teil. A* 23:2135, 1968) to monitor the interaction of two biological molecules. Molecule pairs having affinity constants in the range 10^5 to 10^10 M^-1, and association rate constants in the range of 10^3 to 10^6 M^-1s^-1, are suitable for characterization with BLAcore™.
(§2) The biosensor chips were coated with goat anti-human IgG_1 Fc, which was used to bind CD40/Fc (prepared as described in Example 1) to the chip. The different constructs of CD40-L were then added at increasing concentrations; the chip was regenerated between the different constructs by the addition of sodium hydroxide. Two separate experiments were performed. […] The resultant data were analyzed to determine the affinity and association rate constants of the different CD40-L constructs. […]

[2] = biological target: T1, CD40/Fc fusion protein; test: biosensor (BIAcore), CD40/Fc captured by goat anti-human IgG1 Fc; experiment 1; K1 (site 1)
Description: as §1, §2

[3] = biological target: T1, CD40/Fc fusion protein; test: biosensor (BIAcore), CD40/Fc captured by goat anti-human IgG1 Fc; experiment 1; K2 (site 2)
Description: as §1, §2

[4] = biological target: T1, CD40/Fc fusion protein; test: biosensor assay substantially as Example 22 (captured CD40/Fc); yeast-expressed protein
Description: The biosensor chips were coated with goat anti-human IgG_1 Fc, which was used to bind CD40/Fc (prepared as described in Example 1) to the chip. The different constructs of CD40-L were then added at increasing concentrations; the chip was regenerated between the different constructs by the addition of sodium hydroxide. Two separate experiments were performed. In the first, the binding of a dimeric human CD40-L (Example 14), trimeric human CD40-L (Example 15), dimeric murine CD40-L (prepared substantially as described in Example 14 for human CD40-L/FC) and trimeric murine CD40-L (prepared substantially as described for the human CD40-L in Example 15) were compared. In the second experiment, the binding of trimeric human CD40-L was compared to the binding of two different preparations of monomeric human CD40-L prepared as described in Example 18. The resultant data were analyzed to determine the affinity and association rate constants of the different CD40-L constructs. Results are shown in Table 12 below, and in FIGS. 19A–19B
[a]Mutations are given as the residue present in the native peptide, the residue number, and the residue present in the mutein. Residue numbers for zipper domain mutations are relative to SEQ ID NO: 17. [b]Residue numbers for mutations in the CD40L domain are relative to SEQ ID NO: 12. […]

T1 sequence (P25942 other isoform, or with tags, fused parts or gaps limits assumed): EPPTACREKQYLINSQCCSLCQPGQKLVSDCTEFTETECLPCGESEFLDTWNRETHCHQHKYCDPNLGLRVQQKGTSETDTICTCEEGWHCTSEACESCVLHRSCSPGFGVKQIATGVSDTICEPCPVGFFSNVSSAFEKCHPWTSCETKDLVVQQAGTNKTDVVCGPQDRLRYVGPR

- Site 1 (mol/mol CD40/Fc) [1]: 0.02 mol/mol CD40/Fc
- Site 2 (mol/mol CD40/Fc) [1]: 0.44 mol/mol CD40/Fc
- Ka [2]: 6e+10 M⁻¹
- Ka [3]: 1.6e+08 M⁻¹
B1: trimeric murine CD40-L (ligand)
chain: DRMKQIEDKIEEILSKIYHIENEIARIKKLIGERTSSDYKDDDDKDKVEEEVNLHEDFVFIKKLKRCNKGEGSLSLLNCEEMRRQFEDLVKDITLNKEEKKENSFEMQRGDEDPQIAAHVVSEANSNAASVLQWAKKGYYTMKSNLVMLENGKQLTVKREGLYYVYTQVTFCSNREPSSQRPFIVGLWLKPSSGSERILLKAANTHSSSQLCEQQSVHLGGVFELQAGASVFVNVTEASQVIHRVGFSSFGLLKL
notes: The leader is not part of the secreted protein; Made in CHO cells; also called Murine Trimer; muCD40LT

- Ka [4]: 7.7e+07 M⁻¹
B2: wild type CD40 ligand/zipper domain fusion protein (WT) expressed in yeast (ligand)
chain: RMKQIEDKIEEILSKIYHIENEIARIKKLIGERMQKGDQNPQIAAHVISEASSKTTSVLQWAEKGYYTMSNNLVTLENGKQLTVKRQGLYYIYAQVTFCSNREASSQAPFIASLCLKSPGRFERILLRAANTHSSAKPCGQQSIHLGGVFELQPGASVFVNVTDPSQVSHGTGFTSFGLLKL
